In the DeepSol protein solubility set:

Assay: soluble on expression in E. coli; label from the status in PepcDB or PDB records

Sequence | soluble on expression in E. coli
MGSDKIHHHHHHCKPSKDETSSLKTADRKPLVTNLGNNVILPRYVALNTSVNAFDSEVQIFTAAPTIENLTSLRIKFYQAYIDWEYVACFEFGPAAASTVNLGTKTVNAFPADTAVIKNKIVQGVTAIPPTNSAMYSGFPAIDYLLFAKSLTAQQIVDSFTVSSTAVKRCNYLKTVSSDLKARINTTYTNWTASGANFISLYTNSTGIDLGSATSQTVNMLVADVENIKNFKLGIPLNIIQNVVVGDGSTVNPFKCEGYHSDSSLVLAKASIESLRKLYLGIGADGTDGEGFDNYLEAIDRSGLNVQIKNQIALLQAKLDAIPAPISIAIKNPAGKQAVNEAYTETLHLLVLLKVDMASAIGVMISYGDTDGD | not soluble
MGSDKIHHHHHHCSTEVTEYRQQQPALDIFHYFQGRTEAWGMVQDRSGKQLRRFHVEIDGDVVGDTLTLHERFVYDDGEKQQRIWRIRRTGDNRYQGTAGDIEGVASGQAAGNAFHWRYSMNVEASGSRWLLHFDDWMFLQDGSHLFNKTEMKKFGITVATVTLFFTRTTAEERTAP | not soluble
MGSDKIHHHHHHDEINKDHNHTTAVPAKMILTDVMTSTAFSVVSGDFNLYGGMYVEHETGSHNQFYYAETRSSCTSASTFNNSWGGTYSTLKDALISVKVAEEEQNFITKGIAELFVAYNLAILTDMYGDTPWKEACDYTVSMTPAIDKQEEIYKDIMAYVDAAIEDLQKPDLTSLSNQDLIYKGDASAWLKTAYGLKARYTMRLMGRSADVKGDMEKVLDYISKSYTSAAEQCSYAMYGVGVNINPFFGVFYSRLGEVASRSMFDKLNERNDPRIRRCYVEANSQTMIASKDDPLLNLAHNGDLVQSQLEYTVSMFCAAQTAPTHILSYHEVLFLKAEALCRLNRKDEAKAVLKEAVVAGMANMEVNIKSALASDYWGGFLNVTNEVTPEEAASYFDENVVPLFDANPLKETMIQKYISFWNADGESTECYNDVRRLKSLGEDIYGLQNPGKFPLRCPYGNDDTTTNPNIQAAYGDGQYVFTENVWWAGGTR | not soluble
MGSDKIHHHHHHDIRPVGSVIPQTAEEYRALLARAYLNVPNDRGLACLRSDEMLVNDNEYDRNSYGDIERWNDVSPFPGTSQFTWSNFYNVLFIANQVIESQKEITEGTPEVVNQLVGEAHLLRAYLHFVLVNLHGQPYTKSGALNSKSIPLKLDTDLEKTLGRNTVEEVYTSILSDIEHARELINKEKWETVFSYRFNVLSVDALQSRVSLYMGAWPKCLESAEAVLAKKSVLVDMNETPLALPNHFESVESITALEQVMGSSVNNAVWVPATFLALYQEGDKRLAAYFAAPDENGNRKSSKGGKREFSCTFRVGELYLNAAEAAANMDKLPHARMRLLELMRKRYTPEAYDKKENAVNVMDKNALISEILNERARELAFEGHRWFDLRRTTRPRMVKVLQGKTYILEQDDPRYTIPIPRDAIAANPGLAN | not soluble
MGSDKIHHHHHHDKAYTDAESYTKGLHKIYSVWALSGQDGSSSSDISGLDAGNTALLRCWWTLQEQPTDEMKNAWNDAWCTEVNYMTWTTNKVEPIEGVYQRCMYIVALVNEFLKNIPNAPESIDKESYIAQARFNRAFAYYVLMDMFALPPFITEKNYSIEPAPLSREDLFNWIEAELNEIKPNLPSPRSEYGVADQAVASALLARMYLNAEIYTGKARYTECINACNEVIKAGYQLADNYADLFKADNGENPDTKKEIIYPIIFDGDKTQSWGMAAIIIGARGAEDKDVLLAHSGVDQGWAGFRATSNLVHLFDFQNDEEPKASEIQDKRGIFYDKGRSIDITSSVSGTFETEGWSVFKFSNLNSNGQPGKNTLWVDTDFPMFRLGDIYLMYAEAVARGGEGSKASAVEYINALRKRAYGDDKHNISENWLEENNFRNLLDERGRELYWEGIRRTDLVRFDLLTSGSYTWDFKGGINTGVGVNKRYNVYPIPVTDLTVNGNLQQNEGY | not soluble
MGSDKIHHHHHHDLTEEIHSSVIAENYYNNAGEVMAAMMRPWGHFCGTMQVAQSPWSCNELSSDCAAWPQKGRHGYDNGDWIRLHRHQWIPTDGQVVDAWKKLFEGIGYANNFLTDTENIDFEALQVPMSKAQAQAEMRVYRAYCYWYVMDMFGTAPICEKIGEINPSSKSRAELFAWIEKELNESIPSLSESKTETYGRVSKWGAYALLARLYLNAEIYTGQARWDDCIAACDELAKGGFALDKKWNDTFRADNDKRSTEIIWSIVYDEVYAKGMGWYQRWLHYAHQTGWDLQSGPWNGLVTQPTFYDSFADNDLRKIEGFLIGKQYPRKVDENGNYYYDTTAEPLKGSEEYNGQDLVFVNYIKSMTEGEENSGARSIKYEIQPGTTGDMNNDWVMFRYSEVIYNKAEALMRKNGGKATQEVVDMINSVRQRSFKAEDWEKAKYTTATLTMDEFLAEKGREFAFEGIRRTDLVRFNKFVTTSWWDKTASNEPKRNIFPIPQRQLDANANLSPNEANSLF | not soluble
MGSDKIHHHHHHENLYFQGMGTDKFNNIKIDKYENLINVLKTGDIFLCSGNYLVSKLIKKVSESMFSHTGIIVKWGEHTLIMESVEDDGVRIVPLEHYIKNYENSNNRYNGSLFIARHELLQNVNDDSEMIRNLIKVGFSLLNSGYDKNEIAQIVARIGLGIGRHEDNNEYICSEFVNECFKKIGVEFLTDSEGFIFPEHIAADHHVLPIAQIE | soluble
MGSDKIHHHHHHENLYFQGMLNFTVGPVMSSEEVRAIGAEQVPYFRTTEFSSTMLENEKFMLEYAKAPEGSKAVFMTCSSTGSMEAVVMNCFTKKDKVLVIDGGSFGHRFVQLCEIHEIPYVALKLEHGKKLTKEKLYEYDNQNFTGLLVNVDETSTAVLYDTMMIGEFCKKNNMFFVCDCVSAFLADPFNMNECGADVMITGSQKVLACPPGISVIVLAPRGVERVEKSKVRTMYFDLKDALKNQERGQTPFTPAVGILLQINERLKEIKKHGGADAEVARIASQAADFRAKIKDLPFELVSESPANGVTSVHPTTANAYDIFLKLKDEYGIWICPNGGEMKDTIFRVGHIGALTHEDNTTLVNAFKDLQKRNLL | soluble
MGSDKIHHHHHHGCSDSMTEESDSEQRIPIVFGTQVATRAVVENNKEGMDNFTLWGWVRESDGPKLFFDAVPVTPSGNYGEKRFWAVGRPYGFYAVHPEKMKENNIATEVSCNDKGELRVTGFDSSEMGKGAVDLMTAAKTDVVYEGGGMMAPVLLAFKHELAQVKFTVCTGEKQAEVSDIRLLGVDYKGDLLWTPEESTWQNRINCTEEGTPFVRSESVRIEAGSSVTVLDSVLLLPQPVTEHVAVTFKYAYAGKPLSEAKEAMVYLDVAQTTEWIKSSTYHYKITLPAGDADITVKVSVGDWDSRDISADW | not soluble
MGSDKIHHHHHHGCSDVNQLLGNEESVDYKSTRRGDPLSIPPDLTQANNDPRYKAPASGTATYSQFQQQGLQQQASAGQNTNVLPERADMRVERDGDLRWLVIERPPEQLFPKVVDFWTDTGFTVSVNNPQAGIIETDWAENRAKIPESWLRQVLGSVLETAWDSGEREKFRTRVERVNGHTEIYITHNQMLEKRVGSDGGQVQWTHGKEDPGLNAAMLARLMVYLGTDVDAARKLVAQAEAAPQAPKVQSVRAEGAMLVVDESFDRAWRRVGVALDSGGFAVDDRDRSAGEYFVRYVDTDTGAQNEQPGFFSRLFSSDKKAQAPQYRIRLTGSGTQTQVTVLDANGQRDSSATAQRMLSVLKDKMV | not soluble
MGSDKIHHHHHHIFSSCTDDFEKLNTSNIQVDPADLPFAAQCTEPMTYCYPPQQNMFQFWTNLTIDLYGGYFMTPNGNFTNGDMGENRGHSGGMYENYYLHIFNNTRRIIAQCDASGERGLSGVMRIVQAYGTLMTTDAYGPIPYSSILSGENEVYFEFDSQKDLYKAMLEDLSTAITDISAMGADEIAKLKSFDCWCNGDKDLWVKIANTMKLRMALRLSKRETEAGNAGMNLKAIATEAAQNTLATVNKDILIDKSLENEMWLMFNWGDCGFNANLVTIMSGTKDPRQPLYMTLNTGDIKNEAGTTTVAANSQYLGIRFASGLPAKPNSWGNFSGWIQGNNGSSYSMPLPIMKAAEAYFLLAEAKLRWDIGSESVKNLYENGIRVSMTNELAYRGAYAGIKEYPEGAVDAYINGTSTQIDYTDPIKAELSTPAVNKLSVKWDESASNEEKLERIITQKWLALFPLSTEGWAEQRRTGYPRFFPAFVNESNGAVNTEEGVRRVIYSSQAYDANAKGVEGGIKLLDEENSSKFGISGDKGGTHLWWDNADKGNF | not soluble
MGSDKIHHHHHHIWCTPTRLARPDRRGKAIRTIGMADGTIPMNAKPTEEISVREVFGIDTPMLVKGFAERSDRVPEIDQTYKFDPDTTLAILAGFSHNRRVMVQGYHGTGKSTHIEQVAARLNWPCVRVNLDSHISRIDLIGKDAIKLRDGKQVTEFHEGILPWALRNPVAIVFDEYDAGRADVMFVIQRVLEHDGKLTLLDQNEIITPNPCFRLFATANTVGLGDTTGLYHGTQQINQAQMDRWSLVATLNYLSHDAETMIVLSKAPHYNTEKGRKQVSQMVTVADLTRTAFMNGDLSTVMSPRTVINWAQNAEIFRDVGYAFRLTFLNKCDELERQTVAEFYQRCFDEELPESAASTSLG | not soluble
MGSDKIHHHHHHKDNTKVIAHRGYWKTEGSAQNSIRSLERASEIGAYGSEFDVHLTADNVLVVYHDNDIQGKHIQSCTYDELKDLQLSNGEKLPTLEQYLKRAKKLKNIRLIFELKSHDTPERNRDAARLSVQMVKRMKLAKRTDYISFNMDACKEFIRLCPKSEVSYLNGELSPMELKELGFTGLDYHYKVLQSHPDWVKDCKVLGMTSNVWTVDDPKLMEEMIDMGVDFITTDLPEETQKILHSRAQ | not soluble
MGSDKIHHHHHHKEKKADTYVTKVTDLTGEEEQVLKLEYDRDGKIIKYGDTPVRYEGDQITIGQMNCLNTGNKLCNVTFQIGKGKARESRARCMLKVGEEVYEADKQTVYDYKGDTIFINSDYRATSDYRFLKKVQGKYVFDQLGRLKEVMTVFTEANDSVSSCHTYYNYDNNINYQANLNLQAYVIDYDGVDSFFYFLLNLGQLRNRTALPNDIGYCMNHGLSTYNVHANYRLDDENPVRIEVLYNYTKLLSRIDLSYNPLN | not soluble
MGSDKIHHHHHHLAIFIQYIDTLKLVSIGKNDMYSIEQLEAFVATVKTGSFSSAARALNKAQSVISQHVINLEIDCNSELFDRSGRYPQLTPAGKKLLPHAQVLLSQHQRLRDCAQSLDQQAISELTIGLDEGIPLQKLFNIINELEAKFPTITLEFLTASSIDIIDMIDTERAVTGIIFSELTIPAHIDFESIGSIKFDMYVASTHLLAQQIYDNLAHLKLHRQLLIRSRNTKSSSFQFAISPDVWYADNYYILLELALQGHGWCLLPNHIANHYVDSGQLVMLPSEFKEIGWQANVDVIQHHRYSHEPVFKQLRHSLRQLLTYSA | not soluble
MGSDKIHHHHHHLAKIKTKFVCQSCGTESPKWMGRCSGCGEWNTMVEEVVEEKKARRGSAFVHTTTKQLKPERLSNILSQEESRVFTGSGEFDRVLGGGIVPGSMVLVGGDPGIGKSTILLQTSARLAARGEKVLYISGEESLKQTKLRAERLGLPTQDLFVLSETDMNMIERVVDEENPAFLIIDSIQTVYIDEIQSAPGSVTQVRECTAMLMKIAKSRGIAIFIVGHVTKQGSIAGPRLLEHMVDAVLYFEGERHHTFRILRAVKNRFGSTNEIGIFEMRESGLEEVLNPSEIFLEERTSGVSGSTIVASMEGTRTVLVELQALISPTSFGNPRRMATGIDQNKVALLMAVLEKRSGLLLQTQDAYLKAAGGVKLDEPAIDLAICVAVASSFRDKPTRPTDVVIGEVGLTGEVRRVSRIEQRVAEAAKLGFTRAIIPKNNLGGWTYPPGITVIGVESVDEALRETIPF | not soluble
